In IntAct's records for PubMed 21847091:

B1: Abscisic acid receptor PYR1 (Arabidopsis thaliana (Mouse-ear cress)), O49686 (parent)
chain: MPSELTPEERSELKNSIAEFHTYQLDPGSCSSLHAQRIHAPPELVWSIVRRFDKPQTYKHFIKSCSVEQNFEMRVGCTRDVIVISGLPANTSTERLDILDDERRVTGFSIIGGEHRLTNYKSVTTVHRFEKENRIWTVVLESYVVDMPEGNSEDDTRMFADTVVKLNLQKLATVAEAMARNSGDGSGSQVT

Variants of: B1
Conditions: with HAB1, Q9CAJ0
HAB1, Q9CAJ0, sequence (Q9CAJ0 whole entry): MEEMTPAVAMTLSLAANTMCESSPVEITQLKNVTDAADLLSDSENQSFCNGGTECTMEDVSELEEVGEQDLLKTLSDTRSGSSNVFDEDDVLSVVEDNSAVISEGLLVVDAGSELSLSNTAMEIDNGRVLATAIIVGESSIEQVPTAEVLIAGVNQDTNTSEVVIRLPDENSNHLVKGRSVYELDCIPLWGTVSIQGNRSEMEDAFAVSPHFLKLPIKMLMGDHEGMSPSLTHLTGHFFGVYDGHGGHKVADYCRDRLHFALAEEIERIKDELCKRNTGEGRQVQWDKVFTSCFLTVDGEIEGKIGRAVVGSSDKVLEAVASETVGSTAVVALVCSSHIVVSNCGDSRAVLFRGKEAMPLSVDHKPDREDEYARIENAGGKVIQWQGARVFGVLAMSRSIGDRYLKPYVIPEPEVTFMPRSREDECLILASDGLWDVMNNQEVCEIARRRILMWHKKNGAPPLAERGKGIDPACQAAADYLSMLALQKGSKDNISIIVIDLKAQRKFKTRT

| Variant | effect of a mutation on the interaction |
| --- | --- |
| H60P | increasing interaction |
